One block for each binder: values may come before it.
How the values were obtained:
[1] = biological target: T1, S100A9 subunit (human, UniProt P06702 1-114); experiment: immunofluorescence of mRNA-transfected KB cells with the heterodimer-specific antibody 27E10
T1 construct: Captured with anti-S100A9 from lysate of cells that also express S100A8, so it probably stood in the complex; also called MRP14; calgranulin B
T1 sequence (looked up): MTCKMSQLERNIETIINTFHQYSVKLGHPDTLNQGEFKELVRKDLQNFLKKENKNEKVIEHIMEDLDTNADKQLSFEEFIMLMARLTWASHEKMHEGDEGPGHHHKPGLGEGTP
Description: After CAMP, S100A8/S100A9 mRNA transfection for 16 hours, cells were fixed with 4% paraformaldehyde for 10 minutes, washed with PBS (pH 7.4), and then permeabilized with 0.25% Triton X-100 for 10 minutes. After blocking one hour with 1% BSA in PBS/0.1% Tween 20 and rinsing 3× with PBS, cells were incubated with mouse anti-calprotectin (mAb 27E10, sc-33714, Santa Cruz Biotechnolology, Inc., Santa Cruz, Calif.) or mouse anti-LL37 (sc-166770, Santa Cruz Biotechnolology, Inc., Santa Cruz, Calif.) for one hour, followed by Alexa Fluor 568-conjugated goat anti-mouse IgG or Alexa Fluor 488-conjugated goat anti-rabbit IgG (Life Technologies Corp., Carlsbad, Calif.) for one hour. For EGFP mRNA transfection, no antibody incubation was needed. Nuclei were stained with DAPI. Fluorescence images were captured using an epifluorescence microscope system. A8-IRES-A9 and A8-nIRES-A9 mRNA transfection for 40 hours were also performed.

[2] = biological target: T2, Chk1 (human, UniProt O14757 1-476); experiment: co-immunoprecipitation from cell lysate
T2 construct: also called checkpoint kinase Chk1; p-Chk1 (Ser345)
T2 sequence (looked up): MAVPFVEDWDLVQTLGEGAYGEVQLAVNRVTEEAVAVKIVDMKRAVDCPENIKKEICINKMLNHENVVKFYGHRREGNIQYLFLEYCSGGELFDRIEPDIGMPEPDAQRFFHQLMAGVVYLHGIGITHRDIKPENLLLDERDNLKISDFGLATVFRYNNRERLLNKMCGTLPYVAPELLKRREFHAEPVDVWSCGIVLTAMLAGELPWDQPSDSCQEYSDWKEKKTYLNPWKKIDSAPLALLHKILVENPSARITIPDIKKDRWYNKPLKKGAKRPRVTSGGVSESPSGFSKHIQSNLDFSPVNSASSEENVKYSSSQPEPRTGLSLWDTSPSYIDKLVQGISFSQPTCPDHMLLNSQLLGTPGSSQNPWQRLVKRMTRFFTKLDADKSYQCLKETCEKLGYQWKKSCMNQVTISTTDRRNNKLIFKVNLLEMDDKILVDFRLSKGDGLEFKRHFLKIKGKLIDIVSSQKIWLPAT

binding result [1]: binds
B1: S100A8 (other, human, UniProt P05109 1-93, looked up)
chain: MLTELEKALNSIIDVYHKYSLIKGNFHAVYRDDLKKLLETECPQYIRKKGADVWFKELDINTDGAVNFQEFLILVIKMGVAAHKKSHEESHKE
notes: Expressed in KB cells from transfected mRNA; also called MRP8; calgranulin A

binding result [2]: no binding
B2: S100A8/A9 protein complex (calprotectin; S100A8 complexed with S100A9) (other, human)
chain 1: B1 chain
chain 2: T1 sequence (looked up)
notes: Cytosolic complex in lysates of stably transfected KB-S100A8/A9 cells (co-immunoprecipitation), or in mRNA-transfected KB cells (immunofluorescence); also called S100A8/S100A9 heterodimer; MRP8/14

Source: patent US20200231640A1 (ANTIBIOTIC ALTERNATIVES, published 2020)
